Test results as given in the nanobody polyreactivity screen of Harvey et al. (2022).

Test: yeast display, Sf9 membrane polyspecificity reagent, FACS + sequencing; frameworks hold sequencing errors
Outline: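 A nanobody's polyreactivity label depends on the gate it was sorted from. Yeast display cells were stained with 10% biotinylated, detergent-solubilized Sf9 membrane reagent for 1 hour at 4 °C, enriched on streptavidin microbeads and sorted by FACS. The low and high (top ~1%) gates were set on anti-HA fluorescence for expression and streptavidin fluorescence for reagent binding.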

Sequence	polyreactivity (PSR sort gate)
QVQLVESGVGLVQAGGSLRLSCAASGPTFRNNAMVWSRQAPGKERELVAAITSGGSTNYADSVKGRFTISRDNAKNTVYLQMNSLKPEDTAVYYCAKDFWYVTGGWSSGMDYWGQGTQVSVSS	low polyreactivity
QVQLVESGVGLVQAGGSLRLSCAASGRIFEDNAMGWYRQAPGKERELVAAIDFSGGDTYYADSVKGRFTISRDNAKNTVYLQMYSLKPEDTAVYYCAAGRSGWGYVSWGQGTQVTVSS	low polyreactivity
QVQLVESGVGLVQAGGSLRLSCAASGRIFGSYTMGWYRQAPGKERELVAGISRRGGSTYYADSVKGRFTISRDNAKNTVYLQMNSLKPEDTAVYYCAVVSSHYKGPGRNGYDYWGQGTQVTVSS	high polyreactivity
QVQLVESGVGLVQAGGSLRLSCAASGRTFDYNAMGWYIQAPGKERELVAAITSSGGSTYYADSVKGRFTISRDNAKNTVYLQMNSLKPEDTAVYYCDTDGQSPYYIYYWGQGTQVTVSS	low polyreactivity
QVQLVESGVGLVQAGGSLRLSCAASGRTFRPYALGWYRQAPGNERELVAAIDSGGSTYADSVKGRFTISRDNAKTTVYLQMNSLKPEDTAVYYSAAVTQTAWLWYGYWGQGTQVTVSS	low polyreactivity
QVQLVESGVGLVQAGGSLRLSCAASGRTLSKNAMGWYRQAPWKERELVATMSSVGRTNYADSVKGRFTISRDNAKNTVYLQMNSLKPEDTAVYYCAARRFRGSYYWGQGTQVTVSS	high polyreactivity
QVQLVESGVGLVQAGGSLRLSCAASGSIFGPYAMGWSRQAPGKERELVAAISLGGGSTYYAASVKGRFTISRDNAKNTVYLQMNSVKPEDTAVYYCNAEFSSGPYGYNGFDYWGQGTQVTVSS	low polyreactivity
QVQLVESGVGLVQAGGSLRLSCAASGSIFPGYAMGWYRQAPGKEMELVAGITWSDARTYYADSVKVRFTISRDNAKNTVYLQMNSLKPEDTAVYYCAADYYYYERDYWGQGTQVTVSS	low polyreactivity
QVQLVESGVGLVQAGGSLRLSCAASGSIFPHYAMGWYRQAPGKERELVAAISSGTSTNYADSVKGRFTISRDNAKNTVYLQMNSLKPEDTAVYFCAADYYSGYDSVDGDYNYWGQGTQVTVSS	low polyreactivity
QVQLVESGVGLVQAGGSLRLSCAASGSIFRYYAMGWYRQAPGKEREFVADITWSGTSTYYADSVKGRFTISRDNAKNTVYFQMNSLKPEDTAVFYCNKYRSYWSGPSYWREYDYWGQGTQVTVSS	high polyreactivity
QVQLVESGVGLVQAGGSLRLSCAASGSILSGYAMGWYRQAPGKERELVAAINDGGGTNYADSVKGRFTISRDNAKNTVYLQMNSLKPEDTAVYYCNKVYYFQRRLTPVYLMDYWGQGTQVTVSS	low polyreactivity
QVQLVESGVGLVQAGGSLRLSCAASGSISDVYAMGVYRQAPGKERDLVAAITSGASTYYADSVKGRFTISLDNAKNTVYLQINSLKPEDTAVYYCSAGYSDWYYAAYNSWGQGTQVTVST	low polyreactivity
QVQLVESGVGLVQAGGSLRLSCAASGSNSGLYAMGWYRQAPGKERELVAAIRWSGGSTRYADSVKGRFTISRDNAKNTVYLLMNSLKPEDTAVYYCAADFYSKFVRFGYWGQGTQVTVSS	high polyreactivity
QVQLVESGVGLVQAGGSLRLSCAASGSTFAKYAMGWYRQAPGKERELVASIRLSGGSTYYADSVKGRFTISRDNAKNTVYLQMNSLKPEDTAVYYCAADVIVFYYAPNYWGDIEYGYWGQGTQVTVSS	low polyreactivity
QVQLVESGVGLVQAGGSLRLSCAASGSTFDDYAMGWYRQAPGKERELVAAINKTGGSTNYADSVKGRFTISRDNAKNTVYLQMNSLKPEDNAVYYCAADGSNYSASVAAFPYRVDYWGQGTQVTVSS	low polyreactivity
QVQLVESGVGLVQAGGSLRLSCAASGSTFGGYAMGWYRQAPGKDTEFVAAISYDGDSTYYADSVKGRFTISRDNAKNTVYLQMNSLKPEDTAVYYCAADISYHYGVWYFYYWGQGTQVTVSS	low polyreactivity

Sequence	polyreactivity (PSR sort gate)
QVQLVESGVGLVQAGGSLRLSCAASGSTFKGYTMGWYRQAPGKERELVAAITYSGGRTYYADSVKGRFTISRDNAKNTVYLQMNSLKPEDTAVYYCAARQQWVKVEYDYWGQGTQVTVSS	high polyreactivity
QVQLVESGVGLVQAGGSLRLSCAASGSTFRYYGMGWYRQAPGKEMELVAAISSSGGSTYYADSLKGRFTISRDNAKNTVSLQMNSLKPEDTAVYYCAAGSRFVSSRLYYWGQGTQVTVSS	high polyreactivity
QVQLVESGVGLVQAGGSLRLSCAASGYTFAYNAMGWYRPAPGKERELVAAITSRAGSTHYADSVKGRFTISRDNAKNTVYLQMNSLKPEDTAVYYCAAKRYNRLRSYRYSDREDYWGQGTQVTVSS	high polyreactivity
QVQLVESGVGLVQAGGSLRLSCAATGRIFDLYAMGWYRQAPGKEREFVAAISGRGGSTYYADSVKGRFTISRDNAKNTVYLEMNSLKPEDTAVYYCNAKRSLYGRYGYWGQGSQVTVSS	high polyreactivity
QVQLVESGVGLVQAGGSLRLSCAPSGRIFIYYAMGWYRQAPGKERELVATITASGDSTYYADSVKGRFTISRDNAKNTVYFQMNSLKPEDTAVYYCAADDGDYYEVDYWGQGTQVTVSS	low polyreactivity
QVQLVESGVGLVQAGGSLRLSCASSGILVYNAMAWYRQAPGKERELVAAISARGGRTYYADSVKGRFTISRDNAKNTVYLQMNSLKPEDTAVYYCATLETTGVNYWGQGTQVTVSS	high polyreactivity
QVQLVESGVGLVQAGGSLRLSCASSGLTFNYYAIGWYRQAPGKERELVAAISSDGRTDYADSVKGRFTISRDNAKNTVYLQMNSLKPEDTAFYSCAVEYQSPDDYWGQGTQVTVSS	low polyreactivity
QVQLVESGVGLVQAGGSLRLSCASSGSIFAYNTMGWYRQAPGKEREFVAAISWLGGSTYYADSVKGRFTISRDNAKNTVYLQMNSLKPEDTAVYYCNARYRTTFYTRRYDYWGQGTQVTVSS	low polyreactivity
QVQLVESGVGLVQAGGSLRLSCASSGSTCGYYTMGWYRQAPGKERELVAAITKTGGGTYYADSVKGRFTISRDNAKNTDYLQMNSLKPEDTAVYYCAAYSRFTSDYWGQGTQVTVSS	high polyreactivity
QVQLVESGVGLVQAGGSLSLSCAASGSTFTRYAMGWYRQAPGKERELVASISRSGNTYYADSVKGRFTISRDNAKNTVYLQMNSLKPEDSAVYYCAAKRKSYYSYNFDYWGQGTQVTVSS	high polyreactivity
QVQLVESGVGLVQAGGSLSLSCAPSGSTFTSYAMGWYRQAPGKEMELVAAITSRRGTYYADSVKGRFTISRDNAKNTVYLEMTSLKPEVTAVYYCAARAPYKKYPYVKWYDYWGQGTQVTVSS	high polyreactivity
QVQLVESGVGLVQAGGTLRLSGAASGLIFEYYAMGWYRQPPGKETELVAAITTSGGSTYYADSVKGRFTISRDIAKNTVYLQMNSLKPEDTAVYDCAAVGVRSRYYGYDYWGQGTLVTVSS	high polyreactivity
QVQLVESGVGLVQAGRNLRLSCAASGIIFYLNAMGWYRQAPGKERELVAAISNGTSTNYADSVKGRFTISRDNAKNTVYLQMNSLKPEDTAVYYCAADDLRYNSRSSNYRGDSWGQGTQVTVSS	low polyreactivity
QVQLVESGVGLVQARGSLRLSCAASGYIFTIYAMGWYRHAPGKERELVAAITWSGATTYYADSVKGRFTISRDNAKNTVYLQMNILKPEDTAVYYCNADYWHYYEDYDSWGQGTQVTVSS	low polyreactivity
QVQLVESGVGLVQARGSLRLSCASSGSIFLVYAMGWYRQAPGKESELVAAISRSGRTYADSVKGRFTISRDNAKNTVYLQMNSLKPVDTAVYYCAAVTKRRFEGDYWGQGTQVTVSS	high polyreactivity
QVQLVESGVGLVQARGSLRLSSAASGITLPKYAMGWYRQEHGKERELVAAISRRGGITYYADSVKGRFTISRDNAKNTVYVQMNSLKPEDTAVYYCAADRTDTRGFDYWGQGTQVTVSS	high polyreactivity
